Measurements reported in US20180282719A1 (published 2018).

T1: soluble mouse IL-31 receptor (mouse, UniProt Q8K5B1 19-499)
T1 sequence (looked up): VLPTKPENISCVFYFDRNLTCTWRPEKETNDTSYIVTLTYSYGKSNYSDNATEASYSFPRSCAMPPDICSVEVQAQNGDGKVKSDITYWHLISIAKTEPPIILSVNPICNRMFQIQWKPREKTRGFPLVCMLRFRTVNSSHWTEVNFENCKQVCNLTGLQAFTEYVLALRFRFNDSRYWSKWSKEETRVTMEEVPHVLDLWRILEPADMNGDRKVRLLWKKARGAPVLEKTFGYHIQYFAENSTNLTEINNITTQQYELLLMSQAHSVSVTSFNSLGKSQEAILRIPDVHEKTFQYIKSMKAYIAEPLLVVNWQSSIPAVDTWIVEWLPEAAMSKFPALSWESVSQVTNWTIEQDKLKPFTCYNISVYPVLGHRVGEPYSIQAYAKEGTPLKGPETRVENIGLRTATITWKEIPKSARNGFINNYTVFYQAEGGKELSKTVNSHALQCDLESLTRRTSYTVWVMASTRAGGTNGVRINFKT


Columns and labels:
[1] = target: T2, human IL-6 (Toray) (human, UniProt P05231 30-212); experiment: SPR Biacore T100, antibody on protein A/G chip, human IL-6 analyte, pH 5.5, 37 C
T2 construct: also called human interleukin-6
Description: (§1) Kinetic analysis of antigen-antibody reactions at pH 5.5 and pH 7.4 was carried out using a Biacore T100™ surface plasmon resonance system (GE Healthcare) for the three types of antibodies prepared as mentioned above: Anti-IL6 wild type, Anti-IL6 clone 1, and Anti-IL-6 clone 2 (buffer: DPBS(−) (pH 7.4 or pH 5.5), 150 mM NaCl). The antibodies were bound to a sensor chip on which recomb-protein A/G (Pierce) was immobilized by amine coupling, and then human IL-6 (Toray) adjusted to an appropriate concentration was injected on the chip as an analyte. All the measurements were carried out at 37° C. Association rate constants kₐ (1/Ms) and dissociation rate constants kd (1/s) were calculated using Biacore T100™ Evaluation Software (GE Healthcare), and dissociation constants KD (M) were calculated based on those values (Table 14). Furthermore, the ratio of affinity at pH 5.5 and pH 7.4 was calculated for each clone to evaluate the pH-dependent binding.

[2] = target: T2, human IL-6 (Toray); experiment: SPR Biacore T100, antibody on protein A/G chip, human IL-6 analyte, 37 C, ratio of pH 5.5 to pH 7.4
Description: as §1

[3] = target: T2, human IL-6 (Toray); experiment: SPR Biacore T100, antibody on protein A/G chip, human IL-6 analyte, pH 7.4, 37 C
Description: as §1

[4] = target: T2, human IL-6 (Toray); experiment: SPR Biacore T100, antibody on protein A/G chip, human IL-6 analyte, 37 C
Description: as §1

[5] = target: T1, soluble mouse IL-31 receptor; experiment: SPR Biacore T100, antibody on protein A/G chip, soluble mouse IL-31 receptor analyte, pH 7.4, 25 C
Description: (§2) Kinetic analysis of antigen-antibody reactions at pH 5.5 and pH 7.4 was carried out using a Biacore T100™ surface plasmon resonance system (GE Healthcare) for the two types of antibodies prepared as mentioned above: Anti-IL31R wild type and Anti-IL31R clone 1 (buffer: DPBS(−) (pH 7.4 or pH 5.5), 150 mM NaCl, 0.01% TWEEN® 20 (polyoxyethelene sorbitan monolaurate), 0.02% NaN₃). The antibodies were bound to a sensor chip on which recomb-protein A/G (Pierce) was immobilized by amine coupling, and then the soluble mouse IL-31 receptor (prepared according to the method described in WO 2007/142325) adjusted to an appropriate concentration was injected therein as an analyte. All the measurements were carried out at 25° C. Association rate constants kₐ (1/Ms) and dissociation rate constants kd (1/s) were calculated using Biacore T100™ Evaluation Software (GE Healthcare), and dissociation constants KD (M) were calculated based on those values (Table 16). Furthermore, the ratio of affinity at pH 5.5 and pH 7.4 was calculated for each clone to evaluate the pH-dependent binding.

[6] = target: T1, soluble mouse IL-31 receptor; experiment: SPR Biacore T100, antibody on protein A/G chip, soluble mouse IL-31 receptor analyte, 25 C, ratio of pH 5.5 to pH 7.4
Description: as §2

| Kd [1] [nM] | koff [1] [s⁻¹] | kon [1] [M⁻¹ s⁻¹] | KD (pH 5.5)/KD (pH 7.4) [2] | Kd [3] [nM] | koff [3] [s⁻¹] | kon [3] [M⁻¹ s⁻¹] | pH-dependent binding ability relative to WT [4] [fold] | Kd [5] [nM] | koff [5] [s⁻¹] | kon [5] [M⁻¹ s⁻¹] | KD (pH 5.5)/KD (pH 7.4) [6] | Binder |
| --- | --- | --- | --- | --- | --- | --- | --- | --- | --- | --- | --- | --- |
| 3.98 | 0.011 | 2.76e+06 | 13.5 | 0.294 | 0.00263 | 8.96e+06 | > 10 |  |  |  |  | Anti-IL-6 clone 2 (antibody, human IgG1, kappa, V domains shown, H chain (c1) / L chain (c2)) VH: EVQLVESGGKLLKPGGSLKLSCAASGFTFSSHAMSWFRQSPEKRLEWVAEISSGGSYTYHPHTVTGRFTISRDNAKNTLYLEMSSLRSEDTAMYYCARGLWGHYALDYWGQGTSVTVSS VL: QIVLIQSPAIMSASPGEKVTMTCSASSSVSYMYWYQQKPGSSPRLLIYDTSHHASGVPVRFSGSGSGTSYSLTISRMEAEDAATYYCQHWSGHPYTFGGGTKLEIKR |
|  |  |  |  |  |  |  |  | 23 | 0.0034 | 140000 | 3.2 | Anti-IL31R wild type (antibody, human IgG1, lambda, V domains shown, Antibody of WO 2007/142325, rebuilt and tested here; also called anti-IL-31 receptor antibody including the H chain (WT) and L chain (WT)) VH: not shown VL: LPVLTQPPSVSVAPGQTARITCGGNNIGSKTVYWYQQEPGQAPVLVVYDDTDRPAGIPERFSGANSGNTATLTISRVEAGDEADYYCQVWDSSTDHGVFGGGTKLTVLG |
